According to patent EP4420676A1 (Medizinische Hochschule Hannover, dated 2024):

T1: human DGCR2 expressed on HEK293T cells (human, UniProt P98153 21-550)
T1 construct: Transiently expressed on HEK293T cells from a vector with eGFP downstream of a P2A site; also called human antigen; DiGeorge Syndrom Critical Region 2
T1 sequence: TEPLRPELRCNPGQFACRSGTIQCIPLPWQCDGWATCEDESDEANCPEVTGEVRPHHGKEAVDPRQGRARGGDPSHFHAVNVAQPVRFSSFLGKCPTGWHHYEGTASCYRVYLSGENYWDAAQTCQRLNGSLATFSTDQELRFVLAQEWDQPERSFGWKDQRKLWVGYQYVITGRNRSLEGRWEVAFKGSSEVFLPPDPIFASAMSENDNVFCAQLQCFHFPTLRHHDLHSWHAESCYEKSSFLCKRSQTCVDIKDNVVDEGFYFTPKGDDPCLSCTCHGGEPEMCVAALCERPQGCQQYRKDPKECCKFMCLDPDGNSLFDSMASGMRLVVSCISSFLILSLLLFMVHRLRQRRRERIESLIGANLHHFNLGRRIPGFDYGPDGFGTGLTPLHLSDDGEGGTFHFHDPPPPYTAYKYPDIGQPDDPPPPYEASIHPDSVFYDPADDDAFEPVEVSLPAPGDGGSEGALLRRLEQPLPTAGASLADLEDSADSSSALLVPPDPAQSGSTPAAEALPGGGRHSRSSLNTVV

T2: murine DGCR2 expressed on HEK293T cells (mouse, UniProt P98154 25-548)
T2 construct: Transiently expressed on HEK293T cells from a vector with eGFP downstream of a P2A site; also called mouse DGCR2; murine antigen
T2 sequence: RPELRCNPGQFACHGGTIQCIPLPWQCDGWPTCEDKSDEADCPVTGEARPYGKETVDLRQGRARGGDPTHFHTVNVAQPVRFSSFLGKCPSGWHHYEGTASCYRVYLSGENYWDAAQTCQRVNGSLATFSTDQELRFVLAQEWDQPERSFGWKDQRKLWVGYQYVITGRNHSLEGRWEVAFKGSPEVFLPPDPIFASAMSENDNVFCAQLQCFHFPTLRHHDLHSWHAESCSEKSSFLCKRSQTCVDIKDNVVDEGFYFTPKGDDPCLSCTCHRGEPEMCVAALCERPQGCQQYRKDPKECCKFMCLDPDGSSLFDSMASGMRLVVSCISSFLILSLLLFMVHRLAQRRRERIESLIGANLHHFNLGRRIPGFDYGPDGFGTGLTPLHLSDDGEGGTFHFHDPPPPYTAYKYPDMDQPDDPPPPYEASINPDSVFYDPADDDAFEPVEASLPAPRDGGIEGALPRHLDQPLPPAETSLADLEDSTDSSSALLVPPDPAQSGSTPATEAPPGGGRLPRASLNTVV


Experiments:
[1] = molecular target: T1, human DGCR2 expressed on HEK293T cells; test: flow cytometry, soluble scFv on transfected HEK293T cells (figure legend)
[2] = molecular target: T2, murine DGCR2 expressed on HEK293T cells; test: as above
[3] = molecular target: T2, murine DGCR2 expressed on HEK293T cells; test: flow cytometry, soluble scFv on transfected HEK293T cells, anti-His PE

Row | binding result [1] | binding result [2] | binding result [3] | Binder
1 | binds | binds | – | UK018-G3 scFv (scFv, Soluble scFv produced in E. coli) scFv: QVQLVQSGGGVVQPGRSLRLSCAASGFTFSSYGMHWVRQAPGKGLEWVAVISYDGSNKYYADSVKGRFTISRDNSKNTLYLQMNSLRAEDTAVYYCAKDRGAVAGTDWYFDLWGRGTLVTVSSGSASAPKLEEGEFSEARVSSELTQDPAVSVALGQTVRITCQGDSLRSYYASWYQQKPGQAPVLVIYGKNNRPSGIPDRFSGSSSGNTASLTITGAQAEDEADYYCNSRDSSGNHVVFGGGTKLTVLGQPKAAPSVTLFPPSSAAAGSEQKLISEEDLSHHHHHH
2 | binds | – | binds | tpi010-A5 scFv (scFv, Soluble scFv produced in E. coli) scFv: EVQLVESGGGLVQPGGSLRLSCAASGFTVSSNYMSWVRQAPGKGLEWVSVIYSGGSTYYADSVKGRFTISRDNAKNSLYLQMNSLRAEDTAVYYCARGWTTFDYWGQGTLVTVSSGSASAPKLEEGEFSEARVQAVLTQPPSLSVSPRQTVTITCSGDQLGDRYVSWYQQKPGQSPMLVIYQDDRRPSGVPERFSGSNSGNTATLTIGGTQAMDQADYYCQTWDNSPVVFGGGTKLTVLGQPKAAPSVTLFPPSSAAAGSEQKLISEEDLSHHHHHH
3 | binds | binds | – | UK018-G9 scFv (scFv, Soluble scFv produced in E. coli) scFv: QVQLVQSGGGLVQPGGSLRLSCAASGFTFSSYSMSWVRQAPGKGLEWVLGITRGGNTFYADSVTGRFTISRDISKNTVFLQMDSLRVEDTAIYYCAKDWTMSGINVFDTWGQGTLVTVSSGSASAPKLEEGEFSEARVQAVLTQPPSVSGSPGQSVTISCTGTSSDVGAYNRVSWYQQPPGTAPKLMIYEVNNRPSGVPDRFSGSKSGNTASLTISGLQAEDEADYYCSSSTTSSTYVFGTGTKVTVLGQPKANPTVTLFPPSSAAAGSEQKLISEEDLSHHHHHH
